Results as given in patent publication US20260201030A1, “ANTIBODY, ANTIBODY-DRUG CONJUGATE THEREOF AND USE THEREOF” (EVOPOINT BIOSCIENCES CO., LTD., priority 2021, published 2026).

How the values were obtained:
[1] = target: T1, human Claudin18.2 (Homo sapiens, UniProt P56856); assay: Cell-based FACS affinity on HEK293T-Claudin18.2 (human) cells; assay type: binding
T1 construct: expressed in transfected cells
Description: The affinity of the anti-human Claudin18.2 humanized antibodies was detected by flow cytometry. The experimental procedures were as follows: The adherent cultured HEK293T-Claudin18.2 (human), NUGC4-Claudin18.2 (human) and NUGC4 cells were digested, collected by centrifugation, and washed three times with pre-cooled PBS. The cells were resuspended in 1% BSA (in PBS) and added to a 96-well pointed bottom plate at 3×10^5 cells/well, with a volume of 50 μL per well. Each test antibody was diluted with 1% BSA (in PBS) (starting at 100 μg/mL, diluted in a 3-fold gradient, for 10 concentration points). The test antibody subjected to gradient dilution was added to the cells at 50 μL/well, and the mixture was well mixed and incubated at 4° C. for 1 h. The cells were collected by centrifugation, washed three times with pre-cooled PBS, and resuspended in 50 μL of 1% BSA (in PBS). 1 μL of a fluorescent secondary antibody (Biolegend-410712) was added to each well, and the mixture was well mixed and incubated at 4° C. for 0.5 h. The cells were collected by centrifugation, washed three times with pre-cooled PBS, resuspended in 200 μL of PBS, and assayed on a machine.

[2] = target: T1, human Claudin18.2; assay: Cell-based ELISA affinity of humanized antibodies on L929-Claudin18.2 (human) cells; assay type: binding; conditions: L929-Claudin18.2 cells
[3] = target: T1, human Claudin18.2; assay: Cell-based ELISA affinity of humanized antibodies on HEK293T-Claudin18.2 (human) cells; assay type: binding; conditions: HEK293T-Claudin18.2 cells
Description: The affinity of the anti-human Claudin18.2 murine monoclonal antibodies was evaluated by cell-based ELISA. The experimental procedures were as follows: The day before the experiment, HEK293T-Claudin18.2 (human) cells were plated in a 96-well plate at 5×10^4 cells/well. On the day of the experiment, the supernatant was removed, the cells in each well were washed once with 300 μL of PBS, and 100 μL of 4% paraformaldehyde was added to each well for fixation at room temperature for 20 min. Paraformaldehyde was then removed, and the cells in each well were washed twice with 300 μL of PBS. 100 μL of 2% BSA (in PBS) was added to each well, and the mixture was blocked at 37° C. for 2 h. After removing the blocking solution, each antibody subjected to gradient dilution (diluted with 2% BSA (in PBS), starting at […], in a 3-fold gradient, for a total of 11 concentration points) was added to the plate at 100 μL/well, and the mixture was incubated at 37° C. for 2 h. The supernatant was removed, and the cells in each well were washed three times with 300 μL of PBST. 100 μL of an anti-mouse IgG HRP secondary antibody (Jackson, cat #115-035-003) in 2% BSA was added to each well, and the mixture was incubated at 37° C. for 1 h. The secondary antibody was then removed, and the cells in each well were washed five times with 300 μL of PBST, followed by the addition of 100 μL of a TMB substrate (Huzhou InnoReagents Co., Ltd.) per well for color development for 5-20 min. The reaction was stopped by adding 50 μL of 2 N HCl to each well, and OD450 nm values were read on a microplate reader (manufacturer: MD, model: SpectraMax). The values obtained were plotted by GraphPad Prism to calculate the EC50 value.
The affinity of the anti-human Claudin18.2 humanized monoclonal antibodies was determined by cell-based ELISA. The cell-based ELISA was conducted as described in Example I-3.

[4] = tested on: cynomolgus monkey Claudin18.2; assay: FACS species affinity on HEK293T-Claudin18.2 (cynomolgus monkey) cells; assay type: binding; conditions: cell-based FACS
Description: The affinity of the anti-human Claudin18.2 humanized monoclonal antibodies for Claudin18.2 of different species was determined by flow cytometry (FACS). The experimental procedures were as follows: HEK293T-Claudin18.2 (cynomolgus monkey) cells, HEK293T-Claudin18.2 (mouse) cells and HEK293T-Claudin18.2 (rat) cells were digested, collected by centrifugation, washed three times with pre-cooled PBS, resuspended in 1% BSA (in PBS), and added to a 96-well pointed bottom plate at 3×10^5 cells/well. Each antibody subjected to gradient dilution was added, and the mixture was incubated at 4° C. for 1 h. The cells were washed three times with pre-cooled PBS, and then 1 μL of a fluorescent secondary antibody (APC: Biolegend-410712) was added to each well. The mixture was incubated at 4° C. for 0.5 h, and the cells were washed three times with pre-cooled PBS, then resuspended, and assayed on a flow cytometer.

[5] = tested on: HEK293T-Claudin18.2 (human) cells; assay: CDC activity, guinea pig serum killing experiment; assay type: cell-based; conditions: 20% guinea pig serum, 5 h
Description: CDC activity of the anti-human Claudin18.2 humanized monoclonal antibodies was detected by a guinea pig serum killing experiment. The experimental procedures were as follows: HEK293T-Claudin18.2 (human) cells were digested, collected by centrifugation, plated at 50000 cells/well, and incubated overnight. The supernatant was discarded, and 100 μL of each test antibody subjected to gradient dilution with DMEM+20% guinea pig serum (Beijing Bersee, BM361Y) was added to each well. The mixture was incubated at 37° C. for 5 h, and 20 μL of a CCK8 reagent (Suzhou Rhino Bio, QDY-003-D) was added to each well. The mixture was allowed to react for 1-4 h, and readings were taken at 450 nm on a microplate reader.

[6] = target: T1, human Claudin18.2; assay: Cell-based ELISA affinity on NUGC4 cells endogenously expressing human Claudin18.2; assay type: binding
[7] = target: T2, human Claudin18.1 (Homo sapiens, UniProt P56856); assay: FACS specificity of humanized antibodies on HEK293T-Claudin18.1 (human) cells; assay type: binding; conditions: antibody 50 μg/mL, APC secondary antibody
T2 construct: expressed in transfected cells
Description: The specificity of the anti-human Claudin18.2 humanized monoclonal antibodies was determined by flow cytometry (FACS). The experimental procedures were as follows: HEK293T-Claudin18.1 (human) cells were digested, collected by centrifugation, washed three times with pre-cooled PBS, resuspended in 1% BSA (in PBS), and added to a 96-well pointed bottom plate at 3×10^5 cells/well. Each test antibody with a final concentration of 50 μg/mL was added, and the mixture was incubated at 4° C. for 1 h. The cells were washed three times with pre-cooled PBS, and then 1 μL of a fluorescent secondary antibody (APC: Biolegend-410712 or PE: BioLegend-410708) was added to each well. The mixture was incubated at 4° C. for 0.5 h, and the cells were washed three times with pre-cooled PBS, then resuspended, and assayed on a flow cytometer. For reference, anti-human Claudin18.1 positive control antibodies (positive control antibody-1 and positive control antibody-2) were included in the experiment.

[8] = tested on: HEK293T-Claudin18.2 (human) cells; assay: ADCC activity, fluorescein reporter system (Jurkat-NFAT-CD16a); assay type: cell-based; conditions: HEK293T-Claudin18.2 (human) target cells, 5 h
Description: ADCC activity of the anti-human Claudin18.2 humanized monoclonal antibodies was detected by a fluorescein reporter system. The experiment was carried out using a Rhinogen® Bio-Glory One-Step Firefly Luciferase Assay kit (Suzhou Rhino Bio, RA-GL04), following the manufacturer's instructions. The experimental procedures were as follows: HEK293T-Claudin18.2 (human) cells were digested, collected by centrifugation, resuspended in DMEM+1% FBS, and then plated at 50000 cells/well. Jurkat-NFAT-CD16a cells were collected by centrifugation and resuspended in 1640+1% FBS, and then plated at 100000 cells/well. Each test antibody subjected to gradient dilution was added, and the mixture was incubated at 37° C. for 5 h. 50 μL of a Bio-Glory One-Step luciferase substrate was added to each well, and readings were taken on a microplate reader (MD, SpectraMax i3x).

HEK293T-Claudin18.2 EC50 [1]: 0.3687 µg/mL
HEK293T-Claudin18.2 Maximum signal value [1]: 132603
Affinity detected by cell-based ELISA (EC50, ng/mL) L929-Claudin18.2 [2]: 17.12 ± 0.85(N = 2) ng/mL
Affinity detected by cell-based ELISA (EC50, ng/mL) HEK293T-Claudin18.2 [3]: 12.67 ± 2.1(N = 2) ng/mL
HEK293T-Claudin18.2 (cynomolgus monkey) EC50 [4]: 0.1719 µg/mL
NUCG4 EC50 [6]: 0.09518 µg/mL
NUCG4 Maximum signal value ([6]; OD450): 0.316
Mean APC fluorescence signal value [7]: 281
Median APC fluorescence signal value [7]: 233
Positive rate (%) [7]: 0.69%
B1: 2D3A11-HZ1: humanized anti-Claudin18.2 antibody, VH SEQ ID NO: 38, VL SEQ ID NO: 39 (antibody, V domains shown)
VH: QVQLVQSGAEVKKPGASVKVSCKASGYTFTSYVVHWVRQAPGQGLEWMGYINPYNADSKYSQEFQGRATLTSDKSASTAYMELSSLRSEDMAVYYCSRSYYGNSFDVWGQGTLVTVSS
VL: DIVMTQSPDSLAVSLGERATINCKSSQSLLNSGNQKNYLTWYQQKPGQSPKLLFFWASTRQSGVPDRFSGSGSGTDFTLTISSLQAEDVAVYYCQNDYYFPFTFGQGTKVEIK
CDC activity EC50 [5]: 1.904 µg/mL
ADCC activity EC50 [8]: 0.04791 µg/mL
